In this series the test system is Saccharomyces cerevisiae. In words: protein stability index of tFT-peptide fusion (C-terminal peptide) (PSI (0-1 scale)); higher = more stable (slower turnover). As to conditions: temperature: 30 C. The protocol: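 MPS profiling in S. cerevisiae of the yeast C-terminome library: the last 12 aa of each annotated ORF are fused to the C-terminus of a sfGFP-mCherry timer, after a GGGS linker. Cells are FACS-sorted into 8 mCherry/sfGFP bins and deep-sequenced. PSI runs from 0 (unstable) to 1 (stable); wild type and das1Δ backgrounds, two technical replicates each.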

Where [1] appears, read: genetic background: das1 deletion.

± gives the standard deviation of the averaged measurements.

In turn, VGFAVMALMDEH [YKE4 C-terminal 12 aa] yielded a protein stability index under setting [1] of 0.703 ± 0.052 and a protein stability index (genetic background: wild type) of 0.7046 ± 0.0017.

In turn, VHDDSRCYTHFY [BNI4 C-terminal 12 aa] returned a protein stability index under setting [1] of 0.7313 ± 0.0033 and a protein stability index (genetic background: wild type) of 0.726 ± 0.047.

Take VHKFGWSLSFSP [POR2 C-terminal 12 aa]: the protein stability index under setting [1] is 0.701 ± 0.017 and the protein stability index (genetic background: wild type) was 0.681 ± 0.038.

On to VKEIPEYSHLID [GCN5 C-terminal 12 aa], for which the protein stability index was determined as 0.718 ± 0.0055 under setting [1] and 0.697 ± 0.0012 (genetic background: wild type).

Turning to VKIATSILGKKL [PGS1 C-terminal 12 aa], the protein stability index by setting is: under setting [1], 0.68478 ± 0.00021; (genetic background: wild type) 0.687 ± 0.025.

Sequence VKQMRKKKDKGD [MSB3 C-terminal 12 aa] showed a protein stability index under setting [1] of 0.688 ± 0.0093 and a protein stability index (genetic background: wild type) of 0.691 ± 0.042.

As for VKSSMGPAFRLY [RPL1A C-terminal 12 aa], the protein stability index is, setting by setting: under setting [1], 0.6853 ± 0.0045; (genetic background: wild type) 0.712 ± 0.046.

As to VKTLANEILNII [ECM11 C-terminal 12 aa], the protein stability index was 0.6687 ± 0.0062 under setting [1] and 0.711 ± 0.0092 (genetic background: wild type).

For the sequence VLLTILLFIQAY [SPO19 C-terminal 12 aa], the protein stability index by setting is: under setting [1], 0.1801 ± 0.0012; (genetic background: wild type) 0.19 ± 0.0039.

On to VLMLETIAYLFS [NFG1 C-terminal 12 aa], for which the protein stability index reads like this: under setting [1], 0.487 ± 0.022; (genetic background: wild type) 0.5059 ± 0.0015.

For the sequence “VNNFKMFSNSSV [YIL115W-A C-terminal 12 aa]”, the protein stability index by setting is: under setting [1], 0.704 ± 0.027; (genetic background: wild type) 0.765 ± 0.045.

Consider VPDIPPPPALVA [NUP42 C-terminal 12 aa], for which the protein stability index is, setting by setting: under setting [1], 0.632 ± 0.034; (genetic background: wild type) 0.6989 ± 0.0048.

With VPEEQRIKRRKI [IRC4 C-terminal 12 aa], the protein stability index worked out at 0.705 ± 0.037 under setting [1] and 0.3 ± 0.035 (genetic background: wild type).

For the sequence VPKSLYGVTRTR [GAT3 C-terminal 12 aa], the protein stability index is, setting by setting: under setting [1], 0.697 ± 0.008; (genetic background: wild type) 0.686 ± 0.032.

VPYAKILDQCIL [YGL230C C-terminal 12 aa]: the protein stability index runs as follows: under setting [1], 0.693 ± 0.027; (genetic background: wild type) 0.721 ± 0.021.

In the case of VQNLIAAVMGEL [PNP1 C-terminal 12 aa], the protein stability index is 0.7186 ± 0.002 under setting [1] and 0.664 ± 0.024 (genetic background: wild type).

For VRADDLSTRFNI [RRP43 C-terminal 12 aa], the protein stability index runs as follows: under setting [1], 0.657 ± 0.0082; (genetic background: wild type) 0.664 ± 0.017.

Take VSIYKPYTEESE [WTM1 C-terminal 12 aa]: the protein stability index was 0.662 ± 0.0069 under setting [1] and 0.663 ± 0.027 (genetic background: wild type).

Regarding VSPYDYNHKRVS [DIB1 C-terminal 12 aa], the protein stability index was found to be 0.69264 ± 0.00023 under setting [1] and 0.678 ± 0.035 (genetic background: wild type).

Regarding VTRAAESLGFTV [MIP6 C-terminal 12 aa], the protein stability index reads like this: under setting [1], 0.6997 ± 0.0036; (genetic background: wild type) 0.69562 ± 4.2e-05.

Sequence VVAQKPKLPYTK [YBR225W C-terminal 12 aa] showed a protein stability index under setting [1] of 0.694 ± 0.026 and a protein stability index (genetic background: wild type) of 0.725 ± 0.066.

On to VVNKYLKENGYY [APE2 C-terminal 12 aa], for which the protein stability index is, setting by setting: under setting [1], 0.705 ± 0.02; (genetic background: wild type) 0.6615 ± 0.0031.

Turning to VVVTGNLQILEH [UGP1 C-terminal 12 aa], the protein stability index under setting [1] is 0.678 ± 0.03 and the protein stability index (genetic background: wild type) stood at 0.684 ± 0.019.

As to VYARDAAALRPV [SCS3 C-terminal 12 aa], the protein stability index is, setting by setting: under setting [1], 0.716 ± 0.021; (genetic background: wild type) 0.686 ± 0.03.

VYEVVCDSVRNW [MRX21 C-terminal 12 aa] had a protein stability index under setting [1] of 0.692 ± 0.023 and a protein stability index (genetic background: wild type) of 0.717 ± 0.0011.

Consider VYEYIVNVNEYA [CPS1 C-terminal 12 aa], for which the protein stability index is, setting by setting: under setting [1], 0.6949 ± 0.0031; (genetic background: wild type) 0.682 ± 0.0094.

WEHAMRSRRHKR [SWC3 C-terminal 12 aa]: the protein stability index under setting [1] turned out to be 0.726 ± 0.0012 and the protein stability index (genetic background: wild type) was 0.673 ± 0.027.

As for WEKFIELEKNYK [MST1 C-terminal 12 aa], the protein stability index is, setting by setting: under setting [1], 0.696 ± 0.0078; (genetic background: wild type) 0.799 ± 0.04.

With “WHKHKTSSDKNI [YDR261C-D C-terminal 12 aa]”, the protein stability index worked out at 0.733 ± 0.02 under setting [1] and 0.749 ± 0.012 (genetic background: wild type).

Regarding WKLAKLQIDEAL [SNX41 C-terminal 12 aa], the protein stability index under setting [1] was 0.693 ± 0.0081 and the protein stability index (genetic background: wild type) was 0.6896 ± 0.0063.

In the case of WLSKSGSSAALP [TOS1 C-terminal 12 aa], the protein stability index is, setting by setting: under setting [1], 0.717 ± 0.014; (genetic background: wild type) 0.685 ± 0.022.

For “WQLVDNYESGYE [YGL194C-A C-terminal 12 aa]”, the protein stability index was 0.7087 ± 0.0048 under setting [1] and 0.648 ± 0.031 (genetic background: wild type).

On to WQTLVMILQESG [NPL4 C-terminal 12 aa], for which the protein stability index reads like this: under setting [1], 0.392 ± 0.0077; (genetic background: wild type) 0.444 ± 0.021.

Regarding WTLLSRFLDREW [ATG36 C-terminal 12 aa], the protein stability index was found to be 0.684 ± 0.015 under setting [1] and 0.6939 ± 0.0011 (genetic background: wild type).

Sequence WVDAFGIIYGAL [YIL108W C-terminal 12 aa] showed a protein stability index under setting [1] of 0.7436 ± 0.0063 and a protein stability index (genetic background: wild type) of 0.7232 ± 0.0018.

In the case of YALKRNAFKLLK [CRD1 C-terminal 12 aa], the protein stability index under setting [1] was 0.682 ± 0.011 and the protein stability index (genetic background: wild type) is 0.691 ± 0.02.

With YDLEAGENKFNF [URA7 C-terminal 12 aa], the protein stability index under setting [1] was found to be 0.7022 ± 0.0022 and the protein stability index (genetic background: wild type) was 0.703 ± 0.0099.

As to YEKVVELWNKVV [MNT4 C-terminal 12 aa], the protein stability index by setting is: under setting [1], 0.701 ± 0.018; (genetic background: wild type) 0.199 ± 0.0098.

As to YEPTDWECTDAP [YJR096W C-terminal 12 aa], the protein stability index is, setting by setting: under setting [1], 0.7254 ± 0.0027; (genetic background: wild type) 0.708 ± 0.06.

As to YITTPSSSGHAL [YIL141W C-terminal 12 aa], the protein stability index worked out at 0.716 ± 0.0081 under setting [1] and 0.674 ± 0.027 (genetic background: wild type).

YKIKKQPRKKQQ [HST1 C-terminal 12 aa]: the protein stability index under setting [1] was determined as 0.739 ± 0.015 and the protein stability index (genetic background: wild type) turned out to be 0.708 ± 0.081.

As for YKLGPGEDTATK [DPL1 C-terminal 12 aa], the protein stability index was determined as 0.707 ± 0.023 under setting [1] and 0.702 ± 0.032 (genetic background: wild type).

Regarding YLALKWIVVEQK [ADP1 C-terminal 12 aa], the protein stability index under setting [1] is 0.521 ± 0.021 and the protein stability index (genetic background: wild type) stood at 0.573 ± 0.018.

Sequence YLEHQQIHGRVV [YHR145C C-terminal 12 aa] displayed a protein stability index under setting [1] of 0.679 ± 0.017 and a protein stability index (genetic background: wild type) of 0.691 ± 0.013.

The sequence YLKNYFKTKHII [ERV25 C-terminal 12 aa] gave a protein stability index under setting [1] of 0.702 ± 0.018 and a protein stability index (genetic background: wild type) of 0.185 ± 0.0056.

“YLTFYKSPKTFY [YDR183C-A C-terminal 12 aa]”: the protein stability index was 0.71 ± 0.037 under setting [1] and 0.637 ± 0.055 (genetic background: wild type).

Consider “YNSDSGSYYTLM [YOR192C-C C-terminal 12 aa]”, for which the protein stability index by setting is: under setting [1], 0.704 ± 0.017; (genetic background: wild type) 0.731 ± 0.097.

As to YPGEAKRPQERF [COX10 C-terminal 12 aa], the protein stability index reads like this: under setting [1], 0.6898 ± 0.0058; (genetic background: wild type) 0.7 ± 0.047.

As to YSDTIWNVEPVT [GPH1 C-terminal 12 aa], the protein stability index under setting [1] came to 0.729 ± 0.015 and the protein stability index (genetic background: wild type) was 0.73 ± 0.018.

As to YSKHLKRLLPYH [MRP35 C-terminal 12 aa], the protein stability index by setting is: under setting [1], 0.6788 ± 0.0019; (genetic background: wild type) 0.712 ± 0.071.

The record behind these values is the supplement of paper PMC10724198.
